Test results taken from publication PMC10157364 (2023).
Numbering of substitutions follows the chain as printed.

T1: human MIF treated with 0.2% Proclin300 (oxMIF surrogate) (human, UniProt P14174 1-115, treated with 0.2% Proclin300 to transform MIF into an oxMIF surrogate)
T1 chain: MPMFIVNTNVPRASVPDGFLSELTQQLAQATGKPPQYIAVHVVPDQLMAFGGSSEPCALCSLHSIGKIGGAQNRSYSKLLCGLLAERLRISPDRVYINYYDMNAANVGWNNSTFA

B1: ON103 (antibody, V domains shown)
VH: EVQLQESGGGLVQPGGSLRLSCAASGFTFSIYSMNWVRQAPGKGLEWVSSIGSSGGTTYYADSVKGRFTISRDNSKNTLYLQMNSLRAEDTAVYYCAGSQYLYGMDVWGQGTTVTVSS
VL: DIQMTQSPSSLSASVGDRVTITCRSSQRILTYLNWYQQKPGKAPKLLIYVGSHSQSGVPSRFRGSGSETDFTLTISGLQSEDSATYYCQQSFFTPLTFGGGTKVEIK
B2: C0008 (antibody, V domains shown)
VH: B1 VH with Q5L, Y101W
VL: B1 VL with L30M, Y49F, G51A, S80P, F93W
B3: ON203 (antibody, V domains shown)
VH: B1 VH
VL: B1 VL with L30M, S80P

Biological target: T1, human MIF treated with 0.2% Proclin300 …
Test: SPR

Kd	Binder
3.7 nM	B1
3.5 nM	B2
6.1 nM	B3

Biological target: T1, human MIF treated with 0.2% Proclin300 …
Test: ELISA

EC50	Binder
0.6 nM	B1
0.6 nM	B2
0.7 nM	B3

Biological target: mouse MIF treated with 0.2% Proclin300 (oxMIF surrogate) (mouse, UniProt P34884 1-115, treated with 0.2% Proclin300 to transform MIF into an oxMIF surrogate)
Test: ELISA

EC50	Binder
4.6 nM	B1
3.1 nM	B2
5.2 nM	B3
